From patent US20210145933A1 (COMPLEMENT THERAPEUTICS, published 2021)
Blank lines part the entries; values can stand above or below the binder they belong to.

What was measured:
[1] = target: T1, C3b (human, UniProt P01024 23-667; P01024 749-1663); assay: BLI (OctetRed96), immobilised biotinylated C3b, FHL-1 in solution
T1 construct: In the cofactor assays it was plain 'pure C3b protein'; also called pure C3b protein; biotinylated C3b protein
Description: (§1) The affinity of CR1a for C3b protein was measured using OctetRed96 System (ForteBio, Pall Corp., USA). Biotinylated C3b protein was diluted in 0.2% PBST to final concentration of 0.4 μg/mL and loaded onto High Precision Streptavidin (SAX) Biosensors (ForteBio, Pall Corp., USA) for 600 s, previously hydrated with the same buffer for 20 min. C3b-loaded sensors were then washed with 0.2% PBST for 150 s (baseline) and dipped into wells containing CR1a in different concentrations ranging from 30.0 μg/mL to 2.6 μg/mL for 600 s (association) followed by wash with 0.2% PBST for 600 s (dissociation). Association and dissociation profiles were recorded and analysed with ForeBio Data Analysis v9 (ForteBio, Pall Corp., USA). The negative control i.e. 0.2% PBST containing well was used in parallel to subtract binding resulting from nonspecific interactions with the sensors. Experiments were performed using the kinetics mode, at 25° C. and sample plates were pre-agitated for 3 min. The binding profiles were globally fitted to 1:1 (one analyte in solution to one binding site on the surface). […] Binding affinities were also determined for native soluble C3b-binding complement regulators Factor H (FH) and FHL-1 to immobilised C3b.

[2] = target: T1, C3b; assay: BLI (OctetRed96), biotinylated C3b on streptavidin (SAX) sensors, FHL-1 in solution; the same table prints KD Error (%) 3.1325, Full R^2 0.9550, '278 µgml' under Data Location, FHL-1 ~50kDa
Description: as §1

[3] = target: T1, C3b; assay: BLI (OctetRed96), biotinylated C3b on streptavidin (SAX) sensors, CR1a in solution; the same table prints KD Error (%) 0.4186, Full R^2 0.8731, '30 µgml' under Data Location
Description: as §1

[4] = target: T1, C3b; assay: BLI (OctetRed96), immobilised biotinylated C3b, FH in solution
Description: as §1

[5] = target: T1, C3b; assay: BLI (OctetRed96), biotinylated C3b on streptavidin (SAX) sensors, FH in solution; the same table prints KD Error (%) 3.0192, Full R^2 0.9770, '167 µgml' under Data Location, FH ~155kDa
Description: as §1

T1 sequence (P01024 23-667 limits assumed, chain 1 of 2): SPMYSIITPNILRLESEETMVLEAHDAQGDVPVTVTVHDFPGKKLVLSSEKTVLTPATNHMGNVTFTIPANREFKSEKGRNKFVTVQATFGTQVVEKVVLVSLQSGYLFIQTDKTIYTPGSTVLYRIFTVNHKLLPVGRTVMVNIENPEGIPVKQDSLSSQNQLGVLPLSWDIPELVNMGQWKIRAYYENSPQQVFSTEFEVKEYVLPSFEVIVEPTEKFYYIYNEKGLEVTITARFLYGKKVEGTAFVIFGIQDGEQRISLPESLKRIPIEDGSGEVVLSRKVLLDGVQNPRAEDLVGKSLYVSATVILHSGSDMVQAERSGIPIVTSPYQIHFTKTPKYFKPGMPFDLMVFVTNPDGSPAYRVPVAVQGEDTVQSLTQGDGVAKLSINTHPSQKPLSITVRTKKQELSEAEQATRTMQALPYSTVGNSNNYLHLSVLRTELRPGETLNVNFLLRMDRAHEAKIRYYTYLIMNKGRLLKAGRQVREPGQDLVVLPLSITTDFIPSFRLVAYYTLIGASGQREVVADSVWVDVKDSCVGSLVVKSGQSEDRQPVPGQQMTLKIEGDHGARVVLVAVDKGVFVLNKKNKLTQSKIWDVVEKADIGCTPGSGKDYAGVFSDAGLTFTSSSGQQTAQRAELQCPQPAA
T1 sequence (P01024 749-1663 limits assumed, chain 2 of 2): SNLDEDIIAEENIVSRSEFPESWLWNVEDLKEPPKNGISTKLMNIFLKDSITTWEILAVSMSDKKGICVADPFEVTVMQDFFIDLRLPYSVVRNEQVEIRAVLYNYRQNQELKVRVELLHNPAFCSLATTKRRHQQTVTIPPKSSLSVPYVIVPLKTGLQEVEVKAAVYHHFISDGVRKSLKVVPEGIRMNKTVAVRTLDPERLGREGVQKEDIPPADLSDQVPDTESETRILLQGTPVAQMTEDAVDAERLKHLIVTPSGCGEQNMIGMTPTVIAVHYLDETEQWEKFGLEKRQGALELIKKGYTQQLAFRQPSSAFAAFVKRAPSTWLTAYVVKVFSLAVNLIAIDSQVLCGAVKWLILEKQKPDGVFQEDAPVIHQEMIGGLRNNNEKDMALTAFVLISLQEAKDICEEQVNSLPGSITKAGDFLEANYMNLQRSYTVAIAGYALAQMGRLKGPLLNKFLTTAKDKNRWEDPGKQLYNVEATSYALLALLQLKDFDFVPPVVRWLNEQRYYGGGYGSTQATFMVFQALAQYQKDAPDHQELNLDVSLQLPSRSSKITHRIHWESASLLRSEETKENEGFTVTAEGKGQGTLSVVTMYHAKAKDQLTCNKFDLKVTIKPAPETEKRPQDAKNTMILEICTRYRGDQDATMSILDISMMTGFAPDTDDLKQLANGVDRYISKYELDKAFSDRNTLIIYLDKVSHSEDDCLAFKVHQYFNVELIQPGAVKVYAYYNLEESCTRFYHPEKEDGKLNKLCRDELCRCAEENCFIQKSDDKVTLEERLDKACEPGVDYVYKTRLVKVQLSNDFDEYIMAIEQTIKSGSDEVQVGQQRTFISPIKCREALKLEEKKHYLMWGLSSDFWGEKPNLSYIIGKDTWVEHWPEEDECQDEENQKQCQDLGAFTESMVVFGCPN

Kd [1]: 1200 nM
Kd [2]: 1170 nM
B1: Complement Factor H isoform FHL-1 (other)
chain: EDCNELPPRRNTEILTGSWSDQTYPEGTQAIYKCRPGYRSLGNVIMVCRKGEWVALNPLRKCQKRPCGHPGDTPFGTFTLTGGNVFEYGVKAVYTCNEGYQLLGEINYRECDTDGWTNDIPICEVVKCLPVTAPENGKIVSSAMEPDREYHFGQAVRFVCNSGYKIEGDEEMHCSDDGFWSKEKPKCVEISCKSPDVINGSPISQKIIYKENERFQYKCNMGYEYSERGDAVCTESGWRPLPSCEEKSCDNPYIPNGDYSPLRIKHRTGDEITYQCRNGFYPATRGNTAKCTSTGWIPAPRCTLKPCDYPDIKHGGLYHENMRRPYFPVAVGKYYSYYCDEHFETPSGSYWDHIHCTQDGWSPAVPCLRKCYFPYLENGYNQNYGRKFVQGKSIDVACHPGYALPKAQTTVTCMENGWSPTPRCIRVSFTL
notes: also called factor H-like protein 1

Kd [3]: 21 nM
B2: CR1a (CCPs 8-10 of human Complement Receptor 1, secreted from HEK293 cells) (receptor)
chain: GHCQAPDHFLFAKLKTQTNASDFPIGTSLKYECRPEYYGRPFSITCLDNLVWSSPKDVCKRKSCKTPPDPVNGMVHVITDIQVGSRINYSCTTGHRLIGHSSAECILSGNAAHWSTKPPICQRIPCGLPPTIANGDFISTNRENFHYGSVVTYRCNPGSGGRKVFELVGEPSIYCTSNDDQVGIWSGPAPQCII
notes: also called Human Complement Receptor 1 CCPs 8-10; recombinant CR1a protein

Kd [4]: 580 nM
Kd [5]: 583 nM
B3: Complement Factor H (FH) (other)
chain: EDCNELPPRRNTEILTGSWSDQTYPEGTQAIYKCRPGYRSLGNVIMVCRKGEWVALNPLRKCQKRPCGHPGDTPFGTFTLTGGNVFEYGVKAVYTCNEGYQLLGEINYRECDTDGWTNDIPICEVVKCLPVTAPENGKIVSSAMEPDREYHFGQAVRFVCNSGYKIEGDEEMHCSDDGFWSKEKPKCVEISCKSPDVINGSPISQKIIYKENERFQYKCNMGYEYSERGDAVCTESGWRPLPSCEEKSCDNPYIPNGDYSPLRIKHRTGDEITYQCRNGFYPATRGNTAKCTSTGWIPAPRCTLKPCDYPDIKHGGLYHENMRRPYFPVAVGKYYSYYCDEHFETPSGSYWDHIHCTQDGWSPAVPCLRKCYFPYLENGYNQNYGRKFVQGKSIDVACHPGYALPKAQTTVTCMENGWSPTPRCIRVKTCSKSSIDIENGFISESQYTYALKEKAKYQCKLGYVTADGETSGSITCGKDGWSAQPTCIKSCDIPVFMNARTKNDFTWFKLNDTLDYECHDGYESNTGSTTGSIVCGYNGWSDLPICYERECELPKIDVHLVPDRKKDQYKVGEVLKFSCKPGFTIVGPNSVQCYHFGLSPDLPICKEQVQSCGPPPELLNGNVKEKTKEEYGHSEVVEYYCNPRFLMKGPNKIQCVDGEWTTLPVCIVEESTCGDIPELEHGWAQLSSPPYYYGDSVEFNCSESFTMIGHRSITCIHGVWTQLPQCVAIDKLKKCKSSNLIILEEHLKNKKEFDHNSNIRYRCRGKEGWIHTVCINGRWDPEVNCSMAQIQLCPPPPQIPNSHNMTTTLNYRDGEKVSVLCQENYLIQEGEEITCKDGRWQSIPLCVEKIPCSQPPQIEHGTINSSRSSQESYAHGTKLSYTCEGGFRISEENETTCYMGKWSSPPQCEGLPCKSPPEISHGVVAHMSDSYQYGEEVTYKCFEGFGIDGPAIAKCLGEKWSHPPSCIKTDCLSLPSFENAIPMGEKKDVYKAGEQVTYTCATYYKMDGASNVTCINSRWTGRPTCRDTSCVNPPTVQNAYIVSRQMSKYPSGERVRYQCRSPYEMFGDEEVMCLNGNWTEPPQCKDSTGKCGPPPPIDNGDITSFPLSVYAPASSVEYQCQNLYQLEGNKRITCRNGQWSEPPKCLHPCVISREIMENYNIALRWTAKQKLYSRTGESVEFVCKRGYRLSSRSHTLRTTCWDGKLEYPTCAKR
